According to US20210154165:

Molecular target: ARID1A (endogenous, ARID1A-wildtype cancer cell lysate) (UniProt O14497)
UniProt O14497, sequence (O14497 whole entry, looked up): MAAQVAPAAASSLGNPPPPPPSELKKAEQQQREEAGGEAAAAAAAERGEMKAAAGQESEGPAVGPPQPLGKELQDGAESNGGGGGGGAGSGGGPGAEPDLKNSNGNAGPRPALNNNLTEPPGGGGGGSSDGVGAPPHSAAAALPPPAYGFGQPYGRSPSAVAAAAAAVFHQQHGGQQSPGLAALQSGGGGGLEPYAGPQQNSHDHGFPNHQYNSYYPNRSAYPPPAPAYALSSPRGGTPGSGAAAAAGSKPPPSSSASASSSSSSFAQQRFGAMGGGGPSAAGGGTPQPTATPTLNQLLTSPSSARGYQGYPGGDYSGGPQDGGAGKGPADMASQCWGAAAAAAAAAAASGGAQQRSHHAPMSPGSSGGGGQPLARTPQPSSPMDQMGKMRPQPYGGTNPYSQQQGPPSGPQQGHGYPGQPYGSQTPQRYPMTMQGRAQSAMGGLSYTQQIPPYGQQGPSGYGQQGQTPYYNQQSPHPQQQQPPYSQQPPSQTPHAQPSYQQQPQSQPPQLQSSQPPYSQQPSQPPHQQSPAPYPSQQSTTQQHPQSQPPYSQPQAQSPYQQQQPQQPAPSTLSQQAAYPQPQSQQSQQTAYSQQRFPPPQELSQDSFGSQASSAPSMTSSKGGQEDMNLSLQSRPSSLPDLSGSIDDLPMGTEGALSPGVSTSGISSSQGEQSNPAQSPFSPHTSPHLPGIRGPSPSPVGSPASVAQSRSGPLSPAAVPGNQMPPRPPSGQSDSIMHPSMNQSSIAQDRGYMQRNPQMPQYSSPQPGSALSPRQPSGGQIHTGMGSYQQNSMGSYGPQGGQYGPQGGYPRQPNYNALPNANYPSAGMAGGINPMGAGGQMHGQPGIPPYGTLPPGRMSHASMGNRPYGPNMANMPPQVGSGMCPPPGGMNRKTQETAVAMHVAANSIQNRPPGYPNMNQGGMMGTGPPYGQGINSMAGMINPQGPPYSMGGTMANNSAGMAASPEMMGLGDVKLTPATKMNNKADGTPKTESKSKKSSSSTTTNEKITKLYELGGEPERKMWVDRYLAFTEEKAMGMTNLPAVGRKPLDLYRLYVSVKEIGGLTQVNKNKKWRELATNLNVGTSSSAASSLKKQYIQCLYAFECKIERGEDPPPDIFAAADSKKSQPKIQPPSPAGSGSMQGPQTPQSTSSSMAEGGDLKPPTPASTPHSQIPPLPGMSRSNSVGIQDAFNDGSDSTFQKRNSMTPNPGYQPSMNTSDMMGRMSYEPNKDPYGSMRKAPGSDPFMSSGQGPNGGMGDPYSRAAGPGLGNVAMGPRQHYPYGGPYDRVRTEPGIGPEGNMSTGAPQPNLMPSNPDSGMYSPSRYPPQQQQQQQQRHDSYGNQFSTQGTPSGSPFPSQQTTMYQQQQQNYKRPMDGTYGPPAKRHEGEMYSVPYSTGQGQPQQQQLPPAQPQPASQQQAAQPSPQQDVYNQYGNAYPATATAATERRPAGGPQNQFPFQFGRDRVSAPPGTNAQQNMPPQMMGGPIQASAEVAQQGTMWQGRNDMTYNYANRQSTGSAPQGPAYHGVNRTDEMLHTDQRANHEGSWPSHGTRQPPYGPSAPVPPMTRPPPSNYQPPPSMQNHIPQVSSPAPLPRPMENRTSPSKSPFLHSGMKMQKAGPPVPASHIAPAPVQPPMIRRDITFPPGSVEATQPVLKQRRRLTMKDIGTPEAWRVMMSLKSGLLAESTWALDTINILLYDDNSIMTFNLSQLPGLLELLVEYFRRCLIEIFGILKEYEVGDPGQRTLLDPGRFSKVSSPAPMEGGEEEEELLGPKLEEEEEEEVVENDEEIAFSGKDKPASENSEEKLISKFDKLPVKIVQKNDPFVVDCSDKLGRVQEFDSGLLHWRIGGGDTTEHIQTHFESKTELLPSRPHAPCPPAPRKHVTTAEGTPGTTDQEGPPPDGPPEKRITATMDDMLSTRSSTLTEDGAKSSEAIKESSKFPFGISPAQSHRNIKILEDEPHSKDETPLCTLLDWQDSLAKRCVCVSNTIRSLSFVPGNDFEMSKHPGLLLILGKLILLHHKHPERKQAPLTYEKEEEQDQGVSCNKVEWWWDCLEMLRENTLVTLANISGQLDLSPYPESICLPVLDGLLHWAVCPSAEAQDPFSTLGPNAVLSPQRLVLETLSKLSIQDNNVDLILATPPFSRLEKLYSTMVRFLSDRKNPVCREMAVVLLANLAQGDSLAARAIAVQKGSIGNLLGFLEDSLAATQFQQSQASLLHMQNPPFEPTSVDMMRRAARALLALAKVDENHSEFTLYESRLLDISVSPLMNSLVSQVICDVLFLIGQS

Carbamoyl-phosphate synthetase 2, Aspartate transcarbamoylase, and Dihydroorotase (CAD) (endogenous)
total CAD and phosphorylated CAD (Serine-1859) protein levels by immunoblot after ARID1A knockdown or restoration: wildtype ARID1A functions as a negative regulator of CAD, wherein ARID1A deficiency results in an increase in total and phosphorylated CAD
